The chains are these.
B1: A44-hv1 (antibody, V domains shown)
VH: EMTLKESGPTLVKPTQTLSLTCSVTGDSMTNGYWNWIRKFPGKALEYMGYITYSGSTYYNPSLKGRISITRNTSKNQYYLTLSSVTTVDTATYYCARWHYGSPYYFDYWGQGTTLTVSS
VL: DIKMTQSPSSLSASVGDRVTITCKASQDINSYLSWLQQKPGKSPKTLIYRANRSVDGVPSRFSGSGSGQDYSLTISSLQPEDLGIYYCLQYDEFPPTFGGGTKLEIK
notes: humanized A44, HEK293; also called LC1a x HC1a; variant 1
B2: A44-hv2 (antibody, V domains shown)
VH: B1 VH with T3Q, K5Q, T10G, T15S, Q16E, A44G, T81K, V88A
VL: B1 VL with L11V, A13V, V15P, D17Q, R18T, K42Q, P80A, E81M, L83E, E105T
notes: humanized A44, HEK293; constant regions as for A44-hv1; also called LC1b x HC1b; variant 2
B3: A44-hv9 (antibody, V domains shown)
VH: QMQLQESGPGLVKPSETLSLTCTVSGDSMTNGYWNWIRQPPGKGLEYMGYITYSGSTYYNPSLKSRITISRDTSKNQYSLKLSSVTAADTAVYYCARWHYGSPYYFDYWGQGTLVTVSS
VL: B1 VL with K3Q, S43A, S72T, L73F, L83I, G84A, I85T, L104V
notes: humanized A44, HEK293; constant regions as for A44-hv1; also called LC5b x HC5b; variant 9
B4: A44-hv6 (antibody, V domains shown)
VH: B1 VH with E1Q, T25S, K39Q, S68T, N72D
VL: B1 VL with G84A, I85T
notes: humanized A44, HEK293; constant regions as for A44-hv1; also called LC3 x HC3; variant 6
B5: A44-hv5 (antibody, V domains shown)
VH: B1 VH with N31Q
VL: B1 VL with N52Q, D56E
notes: humanized A44, HEK293; constant regions as for A44-hv1; also called LC2 x HC2b; variant 5
B6: A44-hv7 (antibody, V domains shown)
VH: B1 VH with E1Q, T25S, D27E, N31Q, K39Q, S68T, N72Q, D89E
VL: B1 VL with N52Q, D56E, G84A, I85T
notes: humanized A44, HEK293; constant regions as for A44-hv1; also called LC4 x HC4; variant 7
B7: A44-hv4 (antibody, V domains shown)
VH: B1 VH with N31Q
VL: B1 VL
notes: humanized A44, HEK293; constant regions as for A44-hv1; also called LC1a x HC2b; variant 4

Residue numbers refer to the chain shown, from its start.

The target of this assay is T1, cynomolgus PAI-1 (cynomolgus monkey (Macaca fascicularis), UniProt P05121 24-402 (human entry)).
T1 construct: produced in-house in E. coli (non-glycosylated); active cyno PAI-1 in the assays; also called cyno PAI-1; cPAI-1
T1 sequence (P05121 other isoform, or with tags, fused parts or gaps limits assumed): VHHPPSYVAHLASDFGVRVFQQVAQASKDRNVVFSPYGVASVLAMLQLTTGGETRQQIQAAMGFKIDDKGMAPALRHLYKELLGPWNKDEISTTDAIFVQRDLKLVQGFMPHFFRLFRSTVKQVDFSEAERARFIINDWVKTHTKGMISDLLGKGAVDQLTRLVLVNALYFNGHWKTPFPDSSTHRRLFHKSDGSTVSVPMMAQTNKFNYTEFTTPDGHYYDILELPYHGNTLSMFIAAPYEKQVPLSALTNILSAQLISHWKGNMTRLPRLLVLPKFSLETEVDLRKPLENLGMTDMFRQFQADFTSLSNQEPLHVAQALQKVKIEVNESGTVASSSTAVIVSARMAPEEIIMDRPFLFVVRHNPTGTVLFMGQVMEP
Put plainly: Biacore. A general note: In SPR one partner is held on a chip, and binding of the other changes the refractive index at the surface.
As for B1, the binding result is “binds”. With B2 the entry was “binds”; with B3, “binds”.

For the molecule B4, the binding result was “binds”. Regarding B5, the binding result is on record as “binds”. With B6 the entry was “binds”; with B7, “binds”.

The record behind these values is patent US20160200831A1 (Sanofi, published 2016).
